One block for each binder: values may come before it.
Assays:
recombinant human IL-1α [1] = molecular target: T1, recombinant human IL-1α (human, UniProt P01583 113-271); assay: SPR (Biacore 3000), saturating binding
T1 construct: Purified recombinant protein bought from R&D Systems; also called hIL-1α; rhIL-1α
T1 sequence: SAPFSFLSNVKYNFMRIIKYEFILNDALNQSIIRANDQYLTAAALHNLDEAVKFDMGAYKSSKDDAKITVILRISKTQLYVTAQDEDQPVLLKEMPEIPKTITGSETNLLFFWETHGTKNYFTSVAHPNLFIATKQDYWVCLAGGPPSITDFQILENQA
Method: (§1) The association and dissociation rate constants, kon (M-1s-1) and koff (s-1) were determined under a continuous flow rate of 25 ml/minute. […] The equilibrium dissociation constant (M) of the reaction between DVD-Ig molecule and rhIL1α/β was then calculated from the kinetic rate constants by the following formula: KD=koff/kon. Aliquots of rhIL1α/β samples were also simultaneously injected over a blank reference and reaction CM surface to record and subtract any nonspecific binding background to eliminate the majority of the refractive index change and injection noise. Surfaces were regenerated with two subsequent […] injections of 10 mM Glycine (pH 1.5) at a flow rate of […]. The anti-Fc antibody immobilized surfaces were completely regenerated and retained their full capture capacity over twelve cycles. The apparent stoichiometry of the captured DVD-Ig-rhIL1α/β complex was calculated under saturating binding conditions (steady-state equilibrium) using the following formula: […]
(§2) The affinity of the two DVD-Ig binding proteins to hIL-1 as compared to the affinity of chimeric antibodies to hIL-1 was similar as indicated by the evaluation of the stoichiometry to IL-1. Both chimeric antibodies, being bivalent monospecific, bound to IL-1α and IL-1β on Biacore with a stoichiometry of 1.6 and 1.7, respectively. This is common for an IgG due to inter-molecular interference when antibodies are immobilized densely on the Biacore sense chip resulting in stoichiometry being in the range from 1.5 to 2.0.

recombinant human IL-1β [2] = molecular target: T2, recombinant human IL-1β (human, UniProt P01584 117-269); assay: SPR (Biacore 3000), saturating binding
T2 construct: Recombinant protein; also called hIL-1β; rhIL-1β
Method: as §1, §2

recombinant human IL-1α [3] = molecular target: T1, recombinant human IL-1α; assay: SPR (Biacore), hIL-1α as 2nd antigen after hIL-1β
Method: (§3) In addition, tetravalent dual-specific antigen binding of DVD-Ig binding protein was also analyzed by Biacore (Table 14). DVD-Ig binding protein was first captured via a goat anti-human Fc antibody on the Biacore sensor chip, and the first antigen was injected and a binding signal observed. As the DVD-Ig binding protein was saturated by the first antigen, the second antigen was then injected and the second signal observed. This was done either by first injecting IL-1β then IL-1α or by first injecting IL-1α followed by IL-1β for DVD2-Ig binding protein. In either sequence, a dual-binding activity was detected. Similar results were obtained for DVD1-Ig binding protein. Thus, each DVD-Ig binding protein was able to bind both antigens simultaneously as a dual-specific tetravalent molecule. […] Upon the injection of the second antigen, while DVD-Ig binding protein was already occupied by the first antigen, the stoichiometry of both DVD-Igs binding protein to the second antigen (i.e., hIL-1α or hIL-1β was between 1.0 and 1.3. Thus, DVD-Ig binding protein was able to bind two IL-1α and two IL-β molecules. DVD-Ig binding protein was first captured via a goat anti-human Fc antibody on the Biacore sensor chip, and the first antigen was injected and a binding signal observed, followed by the injection of the second antigen.

recombinant human IL-1α [4] = molecular target: T1, recombinant human IL-1α; assay: cell-based or functional assay
recombinant human IL-1β [5] = molecular target: T2, recombinant human IL-1β; assay: cell-based or functional assay
recombinant human IL-1α [6] = molecular target: T1, recombinant human IL-1α; assay: SPR (Biacore), hIL-1α as 1st antigen
Method: as §3

recombinant human IL-1α [7] = molecular target: T1, recombinant human IL-1α; assay: SPR (Biacore)
Method: (§4) The equilibrium dissociation constant (M) of the reaction between DVD-Ig molecule and rhIL1α/β was then calculated from the kinetic rate constants by the following formula: KD=koff/kon. Aliquots of rhIL1α/β samples were also simultaneously injected over a blank reference and reaction CM surface to record and subtract any nonspecific binding background to eliminate the majority of the refractive index change and injection noise. Surfaces were regenerated with two subsequent […] injections of 10 mM Glycine (pH 1.5) at a flow rate of […]. The anti-Fc antibody immobilized surfaces were completely regenerated and retained their full capture capacity over twelve cycles. The apparent stoichiometry of the captured DVD-Ig-rhIL1α/β complex was calculated under saturating binding conditions (steady-state equilibrium) using the following formula: […]
as §2

recombinant human IL-1β [8] = molecular target: T2, recombinant human IL-1β; assay: SPR (Biacore)
Method: as §4, §2

recombinant human IL-1β [9] = molecular target: T2, recombinant human IL-1β; assay: SPR (Biacore), hIL-1β as 1st antigen
Method: as §3

recombinant human IL-1α [10] = molecular target: T1, recombinant human IL-1α; assay: cell-based or functional assay; remark: listed apart in the source
recombinant human IL-1β [11] = molecular target: T2, recombinant human IL-1β; assay: cell-based or functional assay; remark: listed apart in the source
recombinant human IL-1α [12] = molecular target: T1, recombinant human IL-1α; assay: SPR (Biacore 3000), binder captured via goat anti-human IgG Fc
Method: (§5) Approximately, 5000 RU of goat anti-human IgG Fcγ fragment specific polyclonal antibody (Pierce Biotechnology Inc, Rockford, Ill.) diluted in 10 mM sodium acetate (pH 4.5) was directly immobilized across a CM5 research grade biosensor chip using a standard amine coupling kit according to manufacturer's instructions and procedures at […]. Unreacted moieties on the biosensor surface were blocked with ethanolamine. Modified carboxymethyl dextran surface in flowcell 2 and 4 was used as a reaction surface. Unmodified carboxymethyl dextran without goat anti-human IgG in flow cell 1 and 3 was used as the reference surface. For kinetic analysis, rate equations derived from the 1:1 Langmuir binding model were fitted simultaneously to association and dissociation phases of all ten injections (using global fit analysis) using the Bioevaluation 4.0.1 software. Purified DVD-Ig samples were diluted in HEPES-buffered saline for capture across goat anti-human IgG Fc specific reaction surfaces and injected over reaction matrices at a flow rate of […]. The association and dissociation rate constants, kon (M-1s-1) and koff (s-1) were determined under a continuous flow rate of 25 ml/minute. […] The equilibrium dissociation constant (M) of the reaction between DVD-Ig molecule and rhIL1α/β was then calculated from the kinetic rate constants by the following formula: KD=koff/kon. Aliquots of rhIL1α/β samples were also simultaneously injected over a blank reference and reaction CM surface to record and subtract any nonspecific binding background to eliminate the majority of the refractive index change and injection noise. Surfaces were regenerated with two subsequent […] injections of 10 mM Glycine (pH 1.5) at a flow rate of […]. The anti-Fc antibody immobilized surfaces were completely regenerated and retained their full capture capacity over twelve cycles. The apparent stoichiometry of the captured DVD-Ig-rhIL1α/β complex was calculated under saturating binding conditions (steady-state equilibrium) using the following formula: […]

recombinant human IL-1β [13] = molecular target: T2, recombinant human IL-1β; assay: as above
Method: as §5

recombinant human IL-1β [14] = molecular target: T2, recombinant human IL-1β; assay: SPR (Biacore), hIL-1β as 2nd antigen after hIL-1α
Method: as §3

recombinant human IL-1β [15] = molecular target: T2, recombinant human IL-1β; assay: SPR (Biacore); remark: listed apart in the source
recombinant human IL-1β [16] = molecular target: T2, recombinant human IL-1β; assay: cell-based or functional assay; remark: listed apart in the source
recombinant human IL-1β [17] = molecular target: T2, recombinant human IL-1β; assay: SPR (Biacore), saturating binding
recombinant human IL-1β [18] = molecular target: T2, recombinant human IL-1β; assay: SPR (Biacore), mAb captured via goat anti-mouse IgG
recombinant human IL-1α [19] = molecular target: T1, recombinant human IL-1α; assay: SPR (Biacore); remark: listed apart in the source
recombinant human IL-1α [20] = molecular target: T1, recombinant human IL-1α; assay: cell-based or functional assay; remark: listed apart in the source
recombinant human IL-1α [21] = molecular target: T1, recombinant human IL-1α; assay: SPR (Biacore), saturating binding
recombinant human IL-1α [22] = molecular target: T1, recombinant human IL-1α; assay: SPR (Biacore), mAb captured via goat anti-mouse IgG

- Stoichiometry (recombinant human IL-1α [1]): 2
- Stoichiometry (recombinant human IL-1β [2]): 1.8
- Stoichiometry hIL-1α:DVD-Ig (recombinant human IL-1α [3]): 1.2
- Potency (IC50) M, MRC-5 bioassay (recombinant human IL-1α [4]): 2.9 nM
- Potency (IC50) M, MRC-5 bioassay (recombinant human IL-1β [5]): 1.6 nM
- Stoichiometry hIL-1α:DVD-Ig (recombinant human IL-1α [6]): 1.8
- fold lower affinity than the chimeric 3D12.E3 antibody (recombinant human IL-1α [7]): 3 fold
- fold higher affinity than DVD1-Ig binding protein (recombinant human IL-1β [8]): 3 fold
- Stoichiometry hIL-1β:DVD-Ig (recombinant human IL-1β [9]): 1.6
- neutralizing activity in MRC-5 bioassay, fold less than the chimeric antibodies (recombinant human IL-1α [10]): 3 fold
- neutralizing activity in MRC-5 bioassay, fold higher than DVD1-Ig (recombinant human IL-1β [11]): 3 fold
- Kd (recombinant human IL-1α [12]): 3.42 nM
- koff (recombinant human IL-1α [12]): 0.000252 s⁻¹
- kon (recombinant human IL-1α [12]): 73500 M⁻¹ s⁻¹
- Kd (recombinant human IL-1β [13]): 0.798 nM
- koff (recombinant human IL-1β [13]): 0.00095 s⁻¹
- kon (recombinant human IL-1β [13]): 1.19e+06 M⁻¹ s⁻¹
- Stoichiometry hIL-1β:DVD-Ig (recombinant human IL-1β [14]): 1.3
B1: hIL-1α/β DVD2-Ig binding protein (bispecific antibody, human IgG1, kappa)
heavy: not shown
light: NIVLTQSPASLAVSLGQRATISCRASESVDSYGNSYMHWYQQKPGQPPKLLIYLASNLESGVPARFSGSGSRTDFTLTIDPVEADDAATYYCQQNNEDPFTFGSGTKLEIKRADAAPNIQMTQTTSSLSASLGDRVTISCRASQDISNCLNWYQQKPDGTVKLLIYYTSRLHSGVPSRFSGSGSGTDYSLTISNLEQEDIATYFCQQGKTLPYAFGGGTKLEINRTVAAPSVFIFPPSDEQLKSGTASVVCLLNNFYPREAKVQWKVDNALQSGNSQESVTEQDSKDSTYSLSSTLTLSKADYEKHKVYACEVTHQGLSSPVTKSFNRGEC
notes: 13F5.G5 V - linker (heavy AKTTPP, light ADAAP) - 3D12.E3 V, human Cγ1/Cκ

- Kd (recombinant human IL-1β [15]): 0.291 nM
- koff (recombinant human IL-1β [15]): 0.000621 s⁻¹
- kon (recombinant human IL-1β [15]): 2.13e+06 M⁻¹ s⁻¹
- Potency (IC50) M, MRC-5 bioassay (recombinant human IL-1β [5]): 0.6 nM
- IC50 (M), MRC-5 bioassay (inhibition of IL-8 production) (recombinant human IL-1β [16]): 6e-10 M
- Stoichiometry (recombinant human IL-1β [17]): 1.8
- Kd (recombinant human IL-1β [18]): 0.291 nM
B2: murine monoclonal antibody 13F5.G5 (antibody, V domains shown)
VH: QVQLQQSGAELVRPGSSVKISCKASGYAFSSYWMNWVKQRPGQGLEWIGQIYPGDGDTNYNGKFKGKATLTADKSSSTSYMQLSGLTSEDSAMYFCVRFPTGNDYYAMDYWGQGTSVTVSS
VL: NIVLTQSPASLAVSLGQRATISCRASESVDSYGNSYMHWYQQKPGQPPKLLIYLASNLESGVPARFSGSGSRTDFTLTIDPVEADDAATYYCQQNNEDPFTFGSGTKLEIKR
notes: Murine hybridoma mAb, anti-hIL-1β

- Kd (recombinant human IL-1α [19]): 1.11 nM
- koff (recombinant human IL-1α [19]): 0.000713 s⁻¹
- kon (recombinant human IL-1α [19]): 643000 M⁻¹ s⁻¹
- Potency (IC50) M, MRC-5 bioassay (recombinant human IL-1α [4]): 0.67 nM
- IC50 (M), MRC-5 bioassay (inhibition of IL-8 production) (recombinant human IL-1α [20]): 6.7e-10 M
- Stoichiometry (recombinant human IL-1α [21]): 2
- Kd (recombinant human IL-1α [22]): 1.11 nM
B3: murine monoclonal antibody 3D12.E3 (antibody, V domains shown)
VH: QIQLVQSGPELKKPGETVKISCKASGYTFRNYGMNWVKQAPGKDLKRMAWINTYTGESTYADDFKGRFAFSLETSASTAYLQINNLKNEDTATYFCARGIYYYGSSYAMDYWGQGTSVTVSS
VL: NIQMTQTTSSLSASLGDRVTISCRASQDISNCLNWYQQKPDGTVKLLIYYTSRLHSGVPSRFSGSGSGTDYSLTISNLEQEDIATYFCQQGKTLPYAFGGGTKLEINR
notes: Murine hybridoma mAb, anti-hIL-1α

Reference: US20120201781A1 (AbbVie / Abbott, published 2012)
